Data on three molecules can be found in patent US20050266008A1 (Bristol-Myers Squibb, published 2005).

Numbering of substitutions follows the chain as printed.

The labels stand for the following.
T1: IRTA1 expressed on transfected CHO cells (full-length transmembrane form with N-terminal epitope tag) (human, UniProt Q96PJ5 20-515)
T1 construct: also called CHO line expressing IRTA1
T1 sequence: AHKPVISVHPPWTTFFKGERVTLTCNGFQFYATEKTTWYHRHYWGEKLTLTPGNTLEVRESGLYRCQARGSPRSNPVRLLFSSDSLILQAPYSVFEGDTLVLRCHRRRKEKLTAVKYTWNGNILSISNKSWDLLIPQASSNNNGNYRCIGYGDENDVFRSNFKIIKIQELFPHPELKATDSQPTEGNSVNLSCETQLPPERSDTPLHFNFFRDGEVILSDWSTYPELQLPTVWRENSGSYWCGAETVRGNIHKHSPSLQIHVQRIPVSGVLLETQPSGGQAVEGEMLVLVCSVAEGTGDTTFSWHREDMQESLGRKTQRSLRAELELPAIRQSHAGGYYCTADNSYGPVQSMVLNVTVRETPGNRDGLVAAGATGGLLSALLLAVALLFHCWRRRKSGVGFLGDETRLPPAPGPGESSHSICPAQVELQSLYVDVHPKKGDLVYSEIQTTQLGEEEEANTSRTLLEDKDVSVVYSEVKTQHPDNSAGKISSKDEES

T2: IRTA3 expressed on transfected CHO cells (full-length transmembrane form with N-terminal epitope tag) (human, UniProt Q96P31 18-734)
T2 construct: also called CHO line expressing IRTA3
T2 sequence: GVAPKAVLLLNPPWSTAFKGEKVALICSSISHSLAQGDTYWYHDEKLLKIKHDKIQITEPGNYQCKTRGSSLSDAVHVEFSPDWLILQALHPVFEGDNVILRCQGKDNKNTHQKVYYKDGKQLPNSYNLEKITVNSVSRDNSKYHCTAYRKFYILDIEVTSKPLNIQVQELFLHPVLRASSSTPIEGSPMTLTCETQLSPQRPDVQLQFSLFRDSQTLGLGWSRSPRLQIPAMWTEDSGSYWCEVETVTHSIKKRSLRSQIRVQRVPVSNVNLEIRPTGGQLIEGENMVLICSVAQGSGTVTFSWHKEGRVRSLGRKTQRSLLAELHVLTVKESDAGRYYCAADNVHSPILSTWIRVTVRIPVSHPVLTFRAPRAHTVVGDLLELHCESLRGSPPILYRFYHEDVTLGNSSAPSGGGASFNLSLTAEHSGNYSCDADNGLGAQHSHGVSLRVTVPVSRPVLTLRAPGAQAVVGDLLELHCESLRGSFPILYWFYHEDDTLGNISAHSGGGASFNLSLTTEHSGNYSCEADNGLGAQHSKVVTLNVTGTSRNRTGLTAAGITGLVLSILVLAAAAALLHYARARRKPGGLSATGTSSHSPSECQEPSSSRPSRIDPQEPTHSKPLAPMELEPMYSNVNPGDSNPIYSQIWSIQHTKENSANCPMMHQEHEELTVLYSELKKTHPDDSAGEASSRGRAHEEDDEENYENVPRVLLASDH

T3: IRTA5 expressed on transfected CHO cells (full-length transmembrane form with N-terminal epitope tag) (human, UniProt Q96LA6 17-429)
T3 construct: Neither the signal peptide limits nor the tag is stated; also called CHO line transfected with IRTA5; human IRTA-5
T3 sequence: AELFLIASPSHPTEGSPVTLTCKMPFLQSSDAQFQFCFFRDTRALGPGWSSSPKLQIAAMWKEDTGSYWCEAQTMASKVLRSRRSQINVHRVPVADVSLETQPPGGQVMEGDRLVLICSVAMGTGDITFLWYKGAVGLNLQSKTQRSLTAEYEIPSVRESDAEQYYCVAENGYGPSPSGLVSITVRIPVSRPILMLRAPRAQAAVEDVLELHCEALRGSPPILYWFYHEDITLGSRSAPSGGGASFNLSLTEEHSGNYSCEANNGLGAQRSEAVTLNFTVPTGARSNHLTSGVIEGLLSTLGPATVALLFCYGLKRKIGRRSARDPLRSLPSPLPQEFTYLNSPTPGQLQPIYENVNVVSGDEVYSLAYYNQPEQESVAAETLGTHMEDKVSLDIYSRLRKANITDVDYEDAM

T4: IRTA4 expressed on transfected CHO cells (full-length transmembrane form with N-terminal epitope tag) (human, UniProt Q96LA5 20-508)
T4 construct: also called CHO line expressing IRTA4
T4 sequence: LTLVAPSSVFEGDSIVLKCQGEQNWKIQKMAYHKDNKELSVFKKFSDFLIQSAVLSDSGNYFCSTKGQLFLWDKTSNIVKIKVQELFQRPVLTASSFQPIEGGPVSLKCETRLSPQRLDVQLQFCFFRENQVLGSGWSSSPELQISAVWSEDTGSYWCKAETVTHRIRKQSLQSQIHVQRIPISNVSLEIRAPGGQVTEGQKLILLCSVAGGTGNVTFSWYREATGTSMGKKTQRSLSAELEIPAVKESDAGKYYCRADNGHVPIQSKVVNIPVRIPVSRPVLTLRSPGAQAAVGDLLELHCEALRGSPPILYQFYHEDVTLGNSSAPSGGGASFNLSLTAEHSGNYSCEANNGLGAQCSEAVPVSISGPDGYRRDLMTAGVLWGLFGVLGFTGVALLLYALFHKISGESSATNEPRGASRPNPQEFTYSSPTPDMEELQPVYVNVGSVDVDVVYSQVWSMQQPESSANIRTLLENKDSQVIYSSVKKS

B1: human monoclonal antibody 2G5 (antibody, V domains shown)
VH: QVQLVESGGGVVQPGRSLRLSCAASGFTFSDYGMHWVRQAPGKGLEWVAVIWYDGNNKYYADSVKGRFTISRDNSKNTLYLQMNSLRAEDTAVYYCARDWGRAFDIWGQGTMVTVSS
VL: EIVLTQSPATLSLSPGERATLSCRASQSVSSYLAWYQQKPGQAPRLLIYDASNRATGIPARFSGSGSGTDFTLTISSLEPEDFALYYCQQLNNWPPYTFGQGTKLEIK
notes: Fully human IgG with kappa light chain from an HCo7 HuMab Mouse hybridoma; also called IRTA5 HuMAb 2G5; biotinylated 2G5
B2: human monoclonal antibody 5A2 (antibody, V domains shown)
VH: QVQVVESGGGVVQPGRSLRLSCAASGFTFSNYGMHWVRQAPGKGLEWVAGIWYDGSNKYYADSVKGRFTISRDNSKNTLYLQMNSLRAEDTAVYYCARESPNFDYWGQGTLVTVSS
VL: B1 VL with L85V, L91R, Y97W, L105V
notes: Fully human IgG with kappa light chain from an HCo7 HuMab Mouse hybridoma
B3: human monoclonal antibody 7G8 (antibody, V domains shown)
VH: DVHLVQSGGGLVHPGGSLRLSCAGSGFTFSTYTMHWIRQAPGKDLEWVSAIGTGGGTDYADSVKGRFTISRDNAKNSLYLQMNSLRAEDMAVYYCAREVYWYFDLWGRGTLVTVSS
VL: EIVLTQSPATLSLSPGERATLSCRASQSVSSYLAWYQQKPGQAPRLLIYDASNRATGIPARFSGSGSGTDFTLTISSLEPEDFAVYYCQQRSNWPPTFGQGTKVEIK
notes: Fully human IgG with kappa light chain from an HCo7 HuMab Mouse hybridoma; also called IRTA5 HuMAb 7G8; biotinylated 7G8

The first experiment addresses T1, IRTA1 expressed on transfected CHO …. Description: flow cytometry on IRTA1-CHO cells, FITC-labeled anti-human IgG. The source says:
(§1) Chinese hamster ovary (CHO) cell lines that express one of each of the five IRTA proteins at the cell surface were developed and used to determine the specificity of the IRTA5 HuMAbs by flow cytometry. CHO cells were transfected with expression plasmids containing full length cDNA encoding transmembrane forms of IRTA1, IRTA2, IRTA3, IRTA4, or IRTA5. In addition, the transfected proteins contained an epitope tag at the N-terminus for detection by an antibody specific for the epitope. Binding of the seven anti-IRTA5 HuMAbs was assessed by incubating the transfected cells with each of the IRTA5 Abs at a concentration of 10 μg/ml. The cells were washed and binding was detected with a FITC-labeled anti-human IgG Ab. A murine anti-epitope tag Ab, followed by labeled anti-murine IgG, was used as the positive control. Non-specific human and murine Abs were used as negative controls. The results are depicted in FIG. 9. The IRTA5 HuMAbs bound to the CHO line transfected with IRTA5 but not to CHO lines expressing IRTA1, 2, or 4 as measured by the mean fluorescent intensity (MFI) of staining.
For orientation: Flow cytometry measures light scatter and fluorescence of single cells or particles in a stream.
Regarding B1, the binding result is “no binding (tested: 10 µg/ml)”.

As for B2, the binding result was “no binding (tested: 10 µg/ml)”.

Turning to B3, the binding result is reported as “no binding (tested: 10 µg/ml)”.

A further experiment has as its target T2, IRTA3 expressed on transfected CHO …. Description: flow cytometry on transfected CHO cells.
Text: as §1
Consider B1, for which the binding result is “no binding”.

Take B2: the binding result is recorded as “no binding”.

In the case of B3, the binding result was “no binding”.

For the next experiment, the target named is T3, IRTA5 expressed on transfected CHO …. In words: flow cytometry on IRTA5-CHO cells, antibody at 10 µg/ml, FITC-labeled anti-human IgG; the log y axis has no label on the sheet (MFI per the text).
Text: as §1
B1: the binding result is “binds”.

As for B2, the binding result is “binds”.

For the molecule B3, the binding result is listed as “binds”.

A further experiment has as its target T4, IRTA4 expressed on transfected CHO …. In words: flow cytometry on IRTA4-CHO cells, FITC-labeled anti-human IgG.
Text: as §1
For the molecule B1, the binding result is recorded as “no binding (tested: 10 µg/ml)”.

Take B2: the binding result is recorded as “no binding (tested: 10 µg/ml)”.

Turning to B3, the binding result was “no binding (tested: 10 µg/ml)”.
